In the supplement of paper PMC12764529:
± gives the half width of the 95% confidence interval.

How the values were obtained:
[1] = folding stability dG unfold from chymotrypsin proteolysis; higher = more stable
Method in brief: (§1)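 Only designs with AlphaFold2 dimer inter-PAE above 15 were retained; each was a mini-protein under 80 residues with no cysteine, in a PA-tagged cDNA display construct. After digestion with trypsin and chymotrypsin and sequencing, K50 was inferred by Bayesian fitting of counts, and unfolding free energy was derived per protease or combined against a sequence-predicted unfolded-state K50 and a shared folded-state K50.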

[2] = folding stability dG unfold (combined trypsin and chymotrypsin); higher = more stable
Method in brief: as §1

[3] = folding stability dG unfold from trypsin proteolysis; higher = more stable
Method in brief: as §1

| Sequence | folding stability dG unfold [1] [kcal/mol] | folding stability dG unfold [2] [kcal/mol] | folding stability dG unfold [3] [kcal/mol] |
| --- | --- | --- | --- |
| SAGGSAGGSAGGKEEEARKLAEELAKELGLEIVEVKVERTEKEVKVTIRIKKDGKEIEFSAGGSAGGSAGGS [r10_161_TrROS_Hall] | 1.36 ± 0.025 | 1.29 ± 0.12 | 1.09 ± 0.048 |
| SAGGSAGGSAGGKEITIMMPSPEAIKKLLPPGWKITNIEPIGRDPEDGYPYYMITFKPDSAGGSAGGSAGGS [r10_256_TrROS] | 1.11 ± 0.042 | 1.3 ± 0.057 | 1.43 ± 0.018 |
| SAGGSAGGSAGGKEKKELYVVIKVDKNMTPEEIAEKLKKEFNVDKVEVEVREDGYLVVKVSAGGSAGGSAGG [r7_273_TrROS_Hall] | 1.74 ± 0.084 | 1.62 ± 0.19 | 1.03 ± 0.098 |
| SAGGSAGGSAGGKIIVYNPETGKPEEVSPEDLEEIIKNTPGPLILKVGEGEIELNAKDISAGGSAGGSAGGS [r10_839_TrMRF] | 0.862 ± 0.067 | 0.828 ± 0.12 | 0.807 ± 0.051 |
| SAGGSAGGSAGGKIKDAEIVSVEYDPETGVLYMEVKLEDGSTYRIRFDLKTNKLTIEPVSAGGSAGGSAGGS [r10_674_TrROS_Hall] | 4.91 ± 0.2 | 4.56 ± 0.3 | 3.29 ± 0.36 |
| SAGGSAGGSAGGKIKLTVEKTEDGYLRVTAEDEDTKETVVITLPKGTTLEEALKLLKELSAGGSAGGSAGGS [r10_825_TrROS_Hall] | 3.08 ± 0.14 | 3.19 ± 0.17 | 3.14 ± 0.11 |
| SAGGSAGGSAGGKKIHLFMPKEVAEKFAKELEKLGIDSKEVEIEFHEVDIPPSLPPELKSAGGSAGGSAGGS [r10_602_TrMRF] | -0.594 ± 0.48 | -0.0833 ± 0.27 | -0.0238 ± 0.15 |
| SAGGSAGGSAGGKKIIKVNLRIYDPVNPKVTVLPIEAPFDEIIKIAKEIAAPDQVVEISSAGGSAGGSAGGS [r10_397_TrMRF] | -0.506 ± 0.097 | -0.654 ± 0.16 | -0.844 ± 0.16 |
| SAGGSAGGSAGGKKIKILVKIKDLKKLKGLKPGDLALIEIEVEVKPEKKTEKKYTYKKKSAGGSAGGSAGGS [r10_1233_TrROS_Hall] | 0.908 ± 0.29 | 0.693 ± 0.21 | 0.432 ± 0.23 |
| SAGGSAGGSAGGKKKYIVVKVKVEVDENGNVTITLPNGKKITIPKEKVEVKPDGYLVIKLSAGGSAGGSAGG [r7_684_TrROS_Hall] | 2.05 ± 0.028 | 2.05 ± 0.087 | 1.98 ± 0.07 |
| SAGGSAGGSAGGKKTITVTVKINGKTYRVEIKYDEKTKKVTIKIEVNGKKYEFEFELKDSAGGSAGGSAGGS [r10_438_TrROS_Hall] | 4.42 ± 0.25 | 4.54 ± 0.36 | 4.73 ± 0.96 |
| SAGGSAGGSAGGKKTLVIEFDLEPGGLTAEEIEELLRPYTGKEVRLETHPDGKPVAVVEGSAGGSAGGSAGG [r7_330_TrMRF] | -0.616 ± 0.44 | -0.393 ± 0.16 | -0.488 ± 0.1 |
| SAGGSAGGSAGGKKYIIKNKKTNKYIEVDVIEKDGKLYVYDKKTGKVHEVSLKDLEIVPSAGGSAGGSAGGS [r10_28_TrROS_Hall] | 2.56 ± 0.036 | 2.33 ± 0.089 | 1.84 ± 0.088 |
| SAGGSAGGSAGGKLKPGQKVLVIELKVTKVKTKKDGKKEFEFEITRIEIVEVPEGAKILSAGGSAGGSAGGS [r10_826_TrROS_Hall] | 1.01 ± 0.051 | 1.46 ± 0.14 | 1.78 ± 0.051 |
| SAGGSAGGSAGGKLPPGDIIPMEFEAEFPVYKRDPEGGDWEPIGPMRIDFTIIIRLPPGSAGGSAGGSAGGS [r10_1115_TrROS] | 2.91 ± 0.14 | 2.67 ± 0.22 | 2.5 ± 0.22 |
| SAGGSAGGSAGGKMWIMIPKNEPINLPPGFDKVEIMTNPDDGYVMIRVDSPEDFKRLLEASAGGSAGGSAGG [r7_172_TrROS] | 0.866 ± 0.058 | 1.2 ± 0.065 | 1.405 ± 0.01 |
| SAGGSAGGSAGGKPKIEIELTFIDEDGYAYRLRAEIEIDEDGNVHIEVEIEKVPLPEGLSAGGSAGGSAGGS [r10_563_TrROS_Hall] | 3.28 ± 0.13 | 3.18 ± 0.21 | 2.9 ± 0.14 |
| SAGGSAGGSAGGKPKKVILIEADTLEEALAAAEALAPPGAKVTVTLVERDGKLYLLVTVDSAGGSAGGSAGG [r7_877_TrROS_Hall] | 3.75 ± 0.046 | 3.351 ± 0.028 | 2.16 ± 0.045 |
| SAGGSAGGSAGGKPKTVKIIRDKKTNRLLIERDGKVYEFDVDNVEVREVTLEDLKEEELSAGGSAGGSAGGS [r10_512_TrROS_Hall] | 1.2 ± 0.045 | 0.88 ± 0.14 | 0.576 ± 0.14 |
| SAGGSAGGSAGGKPKVIEIEITDKNGKKRKIKLIEKDGYVYLYDEKTGKLVKKFKLKDLSAGGSAGGSAGGS [r10_589_TrROS_Hall] | 3.92 ± 0.051 | 3.61 ± 0.14 | 3.04 ± 0.097 |
| SAGGSAGGSAGGKPKVIVIEGMSLEEIKALLAELPEDVTIVVRLPDGSTRTLTVRLPEPSAGGSAGGSAGGS [r10_514_TrROS_Hall] | 1.13 ± 0.077 | 1.48 ± 0.095 | 1.78 ± 0.077 |

| Sequence | folding stability dG unfold [1] [kcal/mol] | folding stability dG unfold [2] [kcal/mol] | folding stability dG unfold [3] [kcal/mol] |
| --- | --- | --- | --- |
| SAGGSAGGSAGGKPKYKIVEIKYDKETKTVTLKIKLENGETVEITVPPGTSLEDILKALSAGGSAGGSAGGS [r10_984_TrROS_Hall] | 3.9 ± 0.061 | 3.83 ± 0.055 | 3.57 ± 0.098 |
| SAGGSAGGSAGGKPVKLEISFDKETNTITIKAVDEENKTVTETTIKVTFLPPPPPPPPKSAGGSAGGSAGGS [r10_331_TrROS_Hall] | 2.14 ± 0.37 | 2.03 ± 0.48 | 1.09 ± 0.12 |
| SAGGSAGGSAGGKRTLLIRVPPGASVEQVLEELKRLLPPGAKITVELDPETRTLRVTIDSAGGSAGGSAGGS [r10_163_TrROS_Hall] | 4.12 ± 0.057 | 3.89 ± 0.12 | 3.28 ± 0.075 |
| SAGGSAGGSAGGKRYRVTELEVVEVDGEKRLLVRFEDGRTQAFPAGAKISPDGAEIELLPSAGGSAGGSAGG [r7_931_TrROS_Hall] | 1.44 ± 0.033 | 1.14 ± 0.04 | 0.469 ± 0.042 |
| SAGGSAGGSAGGKSKTLRLYNKDTGVAVTVTLNEDGSLSVTVEPLPPPPPVEEKVVVKGSAGGSAGGSAGGS [r10_664_TrROS_Hall] | 1.37 ± 0.13 | 1.03 ± 0.11 | 0.527 ± 0.071 |
| SAGGSAGGSAGGKVAIVTASPEKAKEIAKKAGIKDVIIIPKNKPELLGPNVDKVILVAEKSAGGSAGGSAGG [r7_381_TrMRF] | -1.94 ± 0.33 | < -1 | -0.629 ± 0.066 |
| SAGGSAGGSAGGKVLKIKFSSIEEILEYIKNNDSVTIVVLDENDNPIGTITVEVKPGSLSAGGSAGGSAGGS [r10_193_TrMRF] | 2.89 ± 0.039 | 2.5 ± 0.092 | 1.67 ± 0.046 |
| SAGGSAGGSAGGKVTIEFPTSRVELYPLPGPFVLAEVSFPNRKLLALAHPDGDEILILPISAGGSAGGSAGG [r7_683_TrMRF] | 1.05 ± 0.082 | 1.07 ± 0.042 | 0.929 ± 0.028 |
| SAGGSAGGSAGGKVYFLPDNTVVYELPDGLYLAVTVNENGEPSRTLYRVLSPTEIKPFPLSAGGSAGGSAGG [r7_423_TrMRF] | 1.66 ± 0.034 | 1.72 ± 0.035 | 1.65 ± 0.024 |
| SAGGSAGGSAGGKWRPITFPFPDGWYLQIYMNPDGDVKAEIYNPDGKPVEKTFPPGEPIFSAGGSAGGSAGG [r7_215_TrROS] | 1.67 ± 0.02 | 1.55 ± 0.054 | 1.25 ± 0.027 |
| SAGGSAGGSAGGLDLSVPGLTSVTPVLLEDPRGYVTTVYTTTYPDGTVLTHTTVLPASLLSAGGSAGGSAGG [r7_214_JUSTAS] | 1.16 ± 0.031 | 1.16 ± 0.024 | 1.09 ± 0.025 |
| SAGGSAGGSAGGLEIVKEVIKNPLKNEPVEVLILIEKKEEPIEKTDLFEIPVKITIIPLSAGGSAGGSAGGS [r10_459_JUSTAS] | 0.152 ± 0.16 | 0.812 ± 0.19 | 1.29 ± 0.11 |
| SAGGSAGGSAGGLKDALENGYVMIDFEIYNPPNGEPIGEITIMVKVPKPEPDEDGNWQLVSAGGSAGGSAGG [r7_959_TrROS] | 0.941 ± 0.06 | 1.26 ± 0.16 | 1.34 ± 0.086 |
| SAGGSAGGSAGGLKPGQKVAVFVKVKVKLYRDPATNELTEEVEIEDVFVVDAETKELLLSAGGSAGGSAGGS [r10_248_TrROS_Hall] | 2.64 ± 0.071 | 2.45 ± 0.12 | 1.98 ± 0.13 |
| SAGGSAGGSAGGLLEIELPSRRILVELKLELKDGKLVKLEIKVKYEGREPEPLTSPEYKSAGGSAGGSAGGS [r10_1043_TrMRF] | 1.94 ± 0.17 | 1.76 ± 0.44 | 1.71 ± 0.14 |
| SAGGSAGGSAGGLPEDDNYVRVKITFTIMMMEFDPKNGKMQMFPISIEIEIYIPPGAELSAGGSAGGSAGGS [r10_133_TrROS] | 3.6 ± 0.25 | 3.26 ± 0.22 | 2.36 ± 0.12 |
| SAGGSAGGSAGGLPNIPGFVLLETYSETFNVPLPENRTATITKTLILHPNALLESYSINPSAGGSAGGSAGG [r7_945_TrMRF] | -0.353 ± 0.23 | -0.251 ± 0.27 | -0.198 ± 0.27 |
| SAGGSAGGSAGGLVPPDAVIPTETTAEEPVYVIDPVTGELTPIGPGVVRRKITRRVPRPSAGGSAGGSAGGS [r10_1115_JUSTAS] | 0.863 ± 0.056 | 0.514 ± 0.11 | -0.968 ± 0.22 |
| SAGGSAGGSAGGMALIKLPNGEVQPVKIKAIDPDGNILVEPENSEWQTFSFDGLEIIPLPSAGGSAGGSAGG [r7_823_TrMRF] | 0.955 ± 0.16 | 0.886 ± 0.16 | 0.647 ± 0.041 |
| SAGGSAGGSAGGMEFKPGQEIEIVLKDENGRLIVIKAKVKKVDGKLVIEIEEAYELDDLSAGGSAGGSAGGS [r10_744_TrROS_Hall] | 2 ± 0.14 | 2.05 ± 0.26 | 2.34 ± 0.12 |
